Reference: patent US20180162928A1 (Janssen / Centocor, published 2018)

How the values were obtained:
Assay in all cases: ELISA, lysate on plate-bound antigen
[1] = molecular target: human serum albumin (human) (UniProt P02768)
[2] = molecular target: unrelated Fc-fused recombinant protein
[3] = molecular target: T1, recombinant biotinylated PD-L1 (rhPD-L1/Fc Chimera, R&D Systems 156-B7) (human, UniProt Q9NZQ7 19-238, biotinylated (sites not given))
T1 construct: Bought Fc chimera; also called human PD-L1
Protocol: Streptavidin-coated Maxisorp plates (Nunc catalog 436110) were blocked for 1 h in Starting Block T20 (Pierce) and then coated with biotinylated PD-L1 (using same antigen as in panning) or negative controls (an unrelated Fc-fused recombinant protein and human serum albumin) for 1 h. Plates were rinsed with TBST and diluted lysate was applied to plates for 1 h. Following additional rinses, wells were treated with HRP-conjugated anti-FN3 domain antibody (PAB25) for 1 h and then assayed with POD (Roche catalog 11582950001).

T1 sequence (Q9NZQ7 19-238, change not shown): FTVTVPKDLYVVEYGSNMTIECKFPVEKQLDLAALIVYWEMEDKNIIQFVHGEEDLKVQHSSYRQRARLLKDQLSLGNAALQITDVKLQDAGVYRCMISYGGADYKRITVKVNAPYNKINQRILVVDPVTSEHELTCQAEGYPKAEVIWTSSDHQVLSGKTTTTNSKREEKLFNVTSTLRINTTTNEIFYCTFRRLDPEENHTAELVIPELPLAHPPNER
Chain of human serum albumin (human) (P02768 25-609 limits assumed): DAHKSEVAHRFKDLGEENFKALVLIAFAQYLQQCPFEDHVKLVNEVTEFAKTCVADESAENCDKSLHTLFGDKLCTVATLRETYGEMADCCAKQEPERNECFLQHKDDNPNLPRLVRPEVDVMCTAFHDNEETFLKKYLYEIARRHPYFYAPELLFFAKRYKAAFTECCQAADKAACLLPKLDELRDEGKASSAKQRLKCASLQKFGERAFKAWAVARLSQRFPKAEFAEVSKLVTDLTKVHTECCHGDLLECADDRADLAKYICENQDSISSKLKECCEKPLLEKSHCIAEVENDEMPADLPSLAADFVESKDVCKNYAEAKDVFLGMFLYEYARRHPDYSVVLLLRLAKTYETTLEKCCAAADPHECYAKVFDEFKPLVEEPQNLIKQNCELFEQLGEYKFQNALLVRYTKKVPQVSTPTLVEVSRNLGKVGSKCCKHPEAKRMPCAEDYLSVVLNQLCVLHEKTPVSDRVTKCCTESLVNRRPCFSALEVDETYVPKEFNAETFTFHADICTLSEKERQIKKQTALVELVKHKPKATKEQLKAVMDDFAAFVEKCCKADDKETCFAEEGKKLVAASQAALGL

| Binder | ELISA HSA (RSU) [1] [RSU] | ELISA Fc Control (RSU) [2] [RSU] | ELISA PD-L1 Fc (RSU) [3] [RSU] |
| --- | --- | --- | --- |
| ISOP121BR5P1F10 (designed binder, not shown: small tags and cut ends, FN3 domain; E. coli lysate in the ELISA) LPAPKNLVVSRVTEDSARLSWPLNLEYFDSFLIQYQESEKVGEAIVLTVPGSERSYDLTGLKPGTEYTVSIYGVYGRYGGPFVSNPLSAIFTT | 720 | 560 | 1.42e+06 |
| ISOP194BR9P1A5 (designed binder, not shown: small tags and cut ends, FN3 domain; E. coli lysate in the ELISA) LPAPKNLVVSRVTEDSARLSWFNADEEYFDSFLIQYQESEKVGEAIVLTVPGSERSYDLTGLKPGTEYTVSIYGVYQRGYHNWFSNPLSAIFTT | 1280 | 800 | 3.18e+06 |
| ISOP121BR5P1D11 (designed binder, not shown: small tags and cut ends, FN3 domain; E. coli lysate in the ELISA) LPAPKNLVVSRVTEDSARLSWFNADEEYFDSFLIQYQESEKVGEAIVLTVPGSERSYDLTGLKPGTEYTVSIYGVYVRAVRFVSSNPLSAIFTT | 1120 | 800 | 2.44e+06 |
| ISOP194BR9P1C8 (designed binder, not shown: small tags and cut ends, FN3 domain; E. coli lysate in the ELISA) LPAPKNLVVSRVTEDSARLSWYFAGELWFDSFLIQYQESEKVGEAIVLTVPGSERSYDLTGLKPGTEYTVSIYGVYQRGYHNWFSNPLSAIFTT | 1280 | 640 | 6.11e+06 |
| ISOP121AR5P1G6 (designed binder, not shown: small tags and cut ends, FN3 domain; E. coli lysate in the ELISA) LPAPKNLVVSRVTEDSARLSWHATFGDPFDSFLIQYQESEKVGEAIVLTVPGSERSYDLTGLKPGTEYTVSIYGVGRHYTVYDSNPLSAIFTT | 880 | 1200 | 17000 |
| ISOP121HR5P1G9 (designed binder, not shown: small tags and cut ends, FN3 domain; E. coli lysate in the ELISA) LPAPKNLVVSRVTEDSARLSWTAPDAAFDSFPINYGERATKGEAINLYVPGSERSYDLTGLKPGTEYWVLIGGVKGGLKSSPLWAWFTT | 1760 | 880 | 17800 |
| ISOP194GR9P1C11 (designed binder, not shown: small tags and cut ends, FN3 domain; E. coli lysate in the ELISA) LPAPKNLVVSRVTEDSARLSWTAPDAAFDSFWIFYNERWQNGEAIRLTVPGSERSYDLTGLKPGTEYWVLIGGVKGGLKSSPLWAWFTT | 1440 | 1040 | 164000 |
| ISOP121GR5P1B4 (designed binder, not shown: small tags and cut ends, FN3 domain; E. coli lysate in the ELISA) LPAPKNLIVSRVTEDSARLSWTAPDAAFDSFPINYGERATKGEAINLYVPGSERSYDLTGLKPGTEYWVLIGGVKGGLKSSPLWAWFTT | 560 | 800 | 16200 |
| ISOP194ER9P1A11 (designed binder, not shown: small tags and cut ends, FN3 domain; E. coli lysate in the ELISA) LPAPKNLVVSRVTEDSARLSWTAPDAAFDSFRIAYYETMVSGEAIVLTVPGSERSYDLTGLKPGTEYAVIIKGVKGGKPSWPLSAIFTT | 880 | 800 | 4.35e+06 |
| ISOP194ER9P1H9 (designed binder, not shown: small tags and cut ends, FN3 domain; E. coli lysate in the ELISA) LPAPKNLVVSRVTEDSARLSWTAPDAAFDSFRIAYYETMVSGEAIVLTVPGSERSYDLTGPKPGTEYAVIIKGVKGGKPSWPLSAIFTT | 880 | 720 | 3.04e+06 |
| ISOP194ER9P1G3 (designed binder, not shown: small tags and cut ends, FN3 domain; E. coli lysate in the ELISA) LPAPKNLIVSRVTEDSARLSWTAPDAAFDSFRIAYYETMVSGEAIVLTVPGSERSYDLTGLKPGTEYAVIIKGVKGGKPSWPLSAIFTT | 720 | 560 | 4.29e+06 |
| ISOP194ER9P1A3 (designed binder, not shown: small tags and cut ends, FN3 domain; E. coli lysate in the ELISA) LPAPKNLVVSRVTEDSARLSWTAPDAAFDSFRIAYYETMVSGEAIVLTVPGSERSYDLTGLKPGTEYAVIIKGVKGGMVSWPLSAIFTT | 800 | 560 | 2.36e+06 |
| ISOP121BR5P1D10 (designed binder, not shown: small tags and cut ends, FN3 domain; E. coli lysate in the ELISA) LPAPKNLVVSRVTEDSARLSWGKKSHFFDSFLIQYQESEKVGEAIVLTVPGSERSYDLTGLKPGTEYTVSIYGVYTRGQCEWESNQLSAIFFTT | 880 | 480 | 1.54e+06 |
| ISOP121BR5P1A7 (designed binder, not shown: small tags and cut ends, FN3 domain; E. coli lysate in the ELISA) LPAPKNLVVSRVTEDSARLSWTTAFHNEYFDSFLIQYQESEKVGEAIVLTVPGSERSYDLTGLKPGTEYTVSIYGVYSRPKAEFTSNPLSAIFTT | 1120 | 800 | 389000 |
| ISOP194BR9P1E4 (designed binder, not shown: small tags and cut ends, FN3 domain; E. coli lysate in the ELISA) LPAPKNLVVSRVTEDSARLSWTTAFHNEYFDSFLIQYQESEKVGEAIVLTVPGSERSYDLTGLKPGTEYTVSIYGVYQRGYHNWFSNPLSAIFTT | 1440 | 640 | 9.79e+06 |
| ISOP194BR9P1G9 (designed binder, not shown: small tags and cut ends, FN3 domain; E. coli lysate in the ELISA) LPAPKNLVVSRVTEDSARLSWTTAFHNEYFDSFLIQYQESEKVGEAIVLTVPGSERSYDLTGLKPGTEYTVSIYGVYIRVQVLWFSNPLSAIFTT | 960 | 640 | 1.44e+07 |
| ISOP194BR9P1H4 (designed binder, not shown: small tags and cut ends, FN3 domain; E. coli lysate in the ELISA) LPAPKNLVVSRVTEDSACLSWTTAFHNEYFDSFLIQYQESEKVGEAIVLTVPGSERSYDLTGLKPGTEYTVSIYGVYSRPKAEFTSNPLSAIFTT | 3840 | 3040 | 4.06e+06 |
| ISOP194BR9P1D1 (designed binder, not shown: small tags and cut ends, FN3 domain; E. coli lysate in the ELISA) LPAPKNLVVSRVTEDSARLSWEHSLLNDQWFDSFLIQYQESEKVGEAIVLTVPGSERSYDLTGLKPGTEYTVSIYGVYQRGRALWYSNPLSAIFTT | 1280 | 1360 | 2.15e+06 |
| ISOP194AR9P1D8 (designed binder, not shown: small tags and cut ends, FN3 domain; E. coli lysate in the ELISA) LPAPKNLVVSRVTEDSARLSWDTWNDFFDSFLIQYQESEKVGEAIVLTVPGSERSYDLTGLKPGTEYTVSIYGVYQRKVIWLSNPLSAIFTT | 6560 | 12000 | 923000 |
| ISOP121BR5P1D6 (designed binder, not shown: small tags and cut ends, FN3 domain; E. coli lysate in the ELISA) LPAPKNLVVSRVTEDSARLSWKQGTSFHFDSFLIQYQESEKVGEAIVLTVPGSERSYDLTGLKPGTEYTVSIYGVQLLANDIISSNPLSAIFTT | 880 | 560 | 2.44e+06 |
| ISOP121AR5P1D11 (designed binder, not shown: small tags and cut ends, FN3 domain; E. coli lysate in the ELISA) LPAPKNLVVSRVTEDSARLSWEWLEHFDSFLIQYQESEKVGEAIVLTVPGSERSYDLTGLKPGTEYTVSIYGVYQRKVEFHSNPLSAIFTT | 1040 | 640 | 393000 |
| ISOP194AR9P1H9 (designed binder, not shown: small tags and cut ends, FN3 domain; E. coli lysate in the ELISA) LPAPKNLVVSRVTEDSARLSWEWLEHFDSFQIQYQESEKVGEAIVLTVPGSERSYDLTGLKPGTEYTVSIYGVYQRKVEFHSNPLSAIFTT | 11400 | 21300 | 2.59e+06 |
| ISOP194AR9P1C10 (designed binder, not shown: small tags and cut ends, FN3 domain; E. coli lysate in the ELISA) LPAPKNLVVSRVTEDSARPSWEWLEHFDSFLIQYQESEKVGEAIVLTVPGSERSYDLTGLKPGTEYTVSIYGVYNRKVNFYSNPLSAIFTT | 15000 | 38200 | 1.39e+07 |
| ISOP194AR9P1E9 (designed binder, not shown: small tags and cut ends, FN3 domain; E. coli lysate in the ELISA) LPAPKNLVVSRVTEDSARLSWEWLEHFDSFLIQYQESEKVGEAIVLTVPGSERSYDLTGLKPGTEYTVSIYGVYQRKVNFYSNPLSAIFTT | 1600 | 5520 | 1.97e+07 |
| ISOP194AR9P1F2 (designed binder, not shown: small tags and cut ends, FN3 domain; E. coli lysate in the ELISA) LPAPKNLVISRVTEDSARLSWEWLEHFDSFLIQYQESEKVGEAIVLTVPGSERSYDLTGLKPGTEYTVSIYGVYNRKVNFYSNPLSAIFTT | 7520 | 1920 | 1.63e+07 |
| ISOP194AR9P1E8 (designed binder, not shown: small tags and cut ends, FN3 domain; E. coli lysate in the ELISA) LPAPKNLVVSRVTEDSARLSWEWLEHFDSFLIQYQESEKVGEAIVLTIPGSERSYDLTGLKPGTEYTVSIYGVYQRKVEFHSNPLSAIFTT | 67700 | 6960 | 3.4e+06 |
| ISOP194AR9P1C3 (designed binder, not shown: small tags and cut ends, FN3 domain; E. coli lysate in the ELISA) LPAPKNLVVSRVTQNSARLSWEWLEHFDSFLIHYQESEKVGEAIVLTVPGSERSYDLTGLKPGTEYTVSIYGVYQRKVEFHSNPLSAIFTT | 5920 | 56400 | 3.55e+06 |
